Results from patent US20230255948A1 (Stanford University, published 2023).

Tests used:
[1] = target: α4β1 integrin on mouse B16 melanoma cells and mouse RAW macrophage cells (mouse, UniProt Q00651 41-1039; P09055 21-798); experiment: cell-based or functional assay
[2] = target: α9β1 integrin on mouse RAW macrophage cells (mouse, UniProt B8JK39 29-1036; P09055 21-798); experiment: cell-based or functional assay
Sequence of α9β1 integrin on mouse RAW macrophage cells (B8JK39 29-1036, chain 1 of 2): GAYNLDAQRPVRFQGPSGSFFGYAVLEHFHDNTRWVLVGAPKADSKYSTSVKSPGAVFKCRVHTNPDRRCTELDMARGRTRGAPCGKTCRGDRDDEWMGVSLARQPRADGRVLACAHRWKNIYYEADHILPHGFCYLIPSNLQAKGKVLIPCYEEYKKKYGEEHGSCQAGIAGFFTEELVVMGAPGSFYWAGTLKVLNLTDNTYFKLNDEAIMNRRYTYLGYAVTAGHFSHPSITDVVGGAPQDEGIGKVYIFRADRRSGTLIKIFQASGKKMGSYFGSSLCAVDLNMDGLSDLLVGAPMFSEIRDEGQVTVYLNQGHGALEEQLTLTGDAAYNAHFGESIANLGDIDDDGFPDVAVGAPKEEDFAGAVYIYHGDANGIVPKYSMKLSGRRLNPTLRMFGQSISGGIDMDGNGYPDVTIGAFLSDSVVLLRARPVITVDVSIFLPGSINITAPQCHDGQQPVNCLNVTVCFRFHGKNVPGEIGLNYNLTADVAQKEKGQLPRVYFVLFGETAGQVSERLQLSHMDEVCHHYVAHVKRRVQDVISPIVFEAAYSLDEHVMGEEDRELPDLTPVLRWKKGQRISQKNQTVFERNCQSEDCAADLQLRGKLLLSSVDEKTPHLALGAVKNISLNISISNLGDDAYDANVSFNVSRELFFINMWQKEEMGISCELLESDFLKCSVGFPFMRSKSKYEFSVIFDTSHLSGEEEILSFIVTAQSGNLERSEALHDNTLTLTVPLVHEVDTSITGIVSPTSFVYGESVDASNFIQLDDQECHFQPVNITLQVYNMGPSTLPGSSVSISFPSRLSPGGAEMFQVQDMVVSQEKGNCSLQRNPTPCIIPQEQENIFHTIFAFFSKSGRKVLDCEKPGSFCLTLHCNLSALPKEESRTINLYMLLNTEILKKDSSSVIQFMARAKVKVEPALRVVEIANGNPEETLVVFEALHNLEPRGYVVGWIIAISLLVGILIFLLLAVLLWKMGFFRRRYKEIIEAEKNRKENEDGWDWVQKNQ
Sequence of α9β1 integrin on mouse RAW macrophage cells (P09055 21-798, chain 2 of 2): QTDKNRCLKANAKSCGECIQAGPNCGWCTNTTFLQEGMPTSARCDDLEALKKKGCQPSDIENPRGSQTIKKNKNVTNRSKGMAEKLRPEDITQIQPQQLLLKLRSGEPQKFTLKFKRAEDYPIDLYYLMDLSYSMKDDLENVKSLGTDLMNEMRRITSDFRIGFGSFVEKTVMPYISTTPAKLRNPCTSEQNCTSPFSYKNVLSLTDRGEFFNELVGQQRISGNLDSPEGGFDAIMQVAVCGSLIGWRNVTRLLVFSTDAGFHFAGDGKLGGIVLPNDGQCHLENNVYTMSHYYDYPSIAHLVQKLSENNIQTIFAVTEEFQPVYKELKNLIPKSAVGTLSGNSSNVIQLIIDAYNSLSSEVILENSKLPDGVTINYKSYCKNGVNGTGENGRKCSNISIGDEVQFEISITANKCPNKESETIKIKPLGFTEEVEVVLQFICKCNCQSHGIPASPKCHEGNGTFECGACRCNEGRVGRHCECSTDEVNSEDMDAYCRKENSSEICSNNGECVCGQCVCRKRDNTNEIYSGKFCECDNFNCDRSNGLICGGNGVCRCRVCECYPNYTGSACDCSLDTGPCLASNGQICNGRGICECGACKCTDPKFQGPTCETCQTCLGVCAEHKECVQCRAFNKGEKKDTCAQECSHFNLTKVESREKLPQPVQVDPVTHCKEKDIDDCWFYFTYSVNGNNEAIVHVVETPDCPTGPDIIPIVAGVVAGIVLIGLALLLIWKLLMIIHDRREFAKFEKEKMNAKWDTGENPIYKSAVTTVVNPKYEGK

Sequence of α4β1 integrin on mouse B16 melanoma cells and mouse RAW macrophage cells (Q00651 41-1039, chain 1 of 2): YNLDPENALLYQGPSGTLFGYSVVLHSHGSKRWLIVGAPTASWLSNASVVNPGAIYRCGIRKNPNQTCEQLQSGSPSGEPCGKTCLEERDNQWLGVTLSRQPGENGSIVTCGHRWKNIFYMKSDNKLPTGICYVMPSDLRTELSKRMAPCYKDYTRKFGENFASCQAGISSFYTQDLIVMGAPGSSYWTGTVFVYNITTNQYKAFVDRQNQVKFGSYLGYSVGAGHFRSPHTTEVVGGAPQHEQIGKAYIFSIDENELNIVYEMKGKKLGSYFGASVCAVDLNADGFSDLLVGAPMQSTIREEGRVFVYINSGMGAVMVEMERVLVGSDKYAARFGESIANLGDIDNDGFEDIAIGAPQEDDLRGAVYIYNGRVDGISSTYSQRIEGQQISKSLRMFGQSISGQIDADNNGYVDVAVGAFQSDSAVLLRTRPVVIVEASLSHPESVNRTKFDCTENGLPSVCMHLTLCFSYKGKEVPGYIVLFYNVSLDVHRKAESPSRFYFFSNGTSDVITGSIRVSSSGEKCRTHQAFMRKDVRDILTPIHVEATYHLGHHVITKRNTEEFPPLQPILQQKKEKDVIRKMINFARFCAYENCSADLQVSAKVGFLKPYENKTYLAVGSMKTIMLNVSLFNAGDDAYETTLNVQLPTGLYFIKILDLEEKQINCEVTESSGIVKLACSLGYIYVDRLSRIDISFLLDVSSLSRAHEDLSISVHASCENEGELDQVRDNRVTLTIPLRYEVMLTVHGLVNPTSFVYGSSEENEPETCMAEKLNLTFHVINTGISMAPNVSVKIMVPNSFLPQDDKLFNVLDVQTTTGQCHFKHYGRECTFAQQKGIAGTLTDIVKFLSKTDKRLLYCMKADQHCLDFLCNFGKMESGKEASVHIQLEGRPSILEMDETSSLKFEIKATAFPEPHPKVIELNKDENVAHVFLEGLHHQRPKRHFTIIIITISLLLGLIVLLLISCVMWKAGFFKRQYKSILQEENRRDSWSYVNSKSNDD
Sequence of α4β1 integrin on mouse B16 melanoma cells and mouse RAW macrophage cells (P09055 21-798, chain 2 of 2): as the sequence (P09055 21-798, chain 2 of 2) above

B16 cell adhesion [1]: ~3.5 fold
PGE2 secretion in RAW cells [1]: ~4.2 fold
PGE2 secretion in RAW cells [2]: ~4.2 fold
Binder: RGDSVVYGLR (ligand) [Thrombin-cleaved OPN-Arg (OPN-R)]
